# Measured values: patent JP2011160681A
# What was measured:
# [1] = target: InfA peptide (GMVDGWYG) (Influenza A virus); experiment: ITC, 25 °C, peptide titrated into antibody
# [2] = target: InfA peptide (GMVDGWYG) (Influenza A virus); experiment: ITC (summary in the description)
binder,measurement,setting,value
"InfA-15 monoclonal antibody (antibody, V domains shown) VH: QVQLKESGPGLVAPSQSLSITCTVSGFSLTKSGLHWVRQPPGKGLEWLGVIWAGGSTDYNSALTSRLTITKDNSKSQIFFRLNSLQTADTAMYYCVRSTFLYAMDFWGQGTSVTVS VL: DAVMTQTPLSLPVSLGDQASISCRSSPSLEHSNGNTYLNWYLQKPGQSPQLLIYRVSNRFSGVPDRFSGSGSGTDFTLKISRVEAEDLGVYFCLQVTHVPPTFGGGTKLEIKRA",Ka,[1],8.6e+06 M⁻¹
same,"結合定数 (order of magnitude, unit M as printed)",[2],1000 nM
